Test results reported in publication PMC12799421, “Inhibition of constitutive activity of the atypical chemokine receptor 3 by the small-molecule inverse agonist VUF16840” (Molecular Pharmacology, 2025).

Key:
CXCL12 levels [1] = test system: CXCL12 levels; design: method as in PMID 33595155, PMID 38819698; conditions: mice, in vivo application; cited from earlier work
CXCL12 levels [2] = conditions: humans; cited from earlier work
[3] = molecular target: hCCR3 C-terminally tagged with SmBiT (chemokine receptor screen) (human) (UniProt P51677)
Chain of hCCR3 C-terminally tagged with SmBiT (chemokine receptor screen) (human) (P51677 whole entry): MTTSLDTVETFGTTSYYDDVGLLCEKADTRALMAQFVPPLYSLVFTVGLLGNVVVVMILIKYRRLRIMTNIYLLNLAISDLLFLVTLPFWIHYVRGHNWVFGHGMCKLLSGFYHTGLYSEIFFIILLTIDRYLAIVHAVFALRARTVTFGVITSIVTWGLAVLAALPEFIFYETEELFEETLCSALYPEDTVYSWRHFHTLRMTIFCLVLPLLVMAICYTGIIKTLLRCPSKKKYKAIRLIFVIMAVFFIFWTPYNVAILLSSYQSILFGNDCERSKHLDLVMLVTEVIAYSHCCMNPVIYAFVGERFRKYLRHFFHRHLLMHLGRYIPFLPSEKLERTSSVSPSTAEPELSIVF

CCR3 = CCR3 (Homo sapiens, UniProt P51677); test: NanoBiT β-arrestin2 recruitment to CCR3, concentration-response; type: cell-based; conditions: HEK293T, NanoBiT
Chain of CCR3 (P51677 whole entry): as above
Chain of CCR3 (P32121 whole entry partner): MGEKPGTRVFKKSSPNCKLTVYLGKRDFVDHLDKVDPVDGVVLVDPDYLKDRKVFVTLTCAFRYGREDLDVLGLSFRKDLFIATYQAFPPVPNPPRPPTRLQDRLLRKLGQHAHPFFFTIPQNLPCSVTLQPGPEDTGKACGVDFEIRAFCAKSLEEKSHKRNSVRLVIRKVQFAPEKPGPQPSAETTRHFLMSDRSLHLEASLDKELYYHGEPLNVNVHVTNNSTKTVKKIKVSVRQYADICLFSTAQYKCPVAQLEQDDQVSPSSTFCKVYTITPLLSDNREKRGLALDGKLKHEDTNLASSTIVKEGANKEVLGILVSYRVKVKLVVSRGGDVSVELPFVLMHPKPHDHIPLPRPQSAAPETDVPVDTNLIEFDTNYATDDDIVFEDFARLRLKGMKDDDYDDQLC
Experimental: The pharmacological modulation of all chemokine receptors by VUF16840 was performed according to an established method.[8]^,[23]^,[39] Briefly, β-arrestin2 recruitment to chemokine receptors in response to 1 μM VUF16840 or positive control chemokines was monitored by NanoLuc complementation assay (NanoBiT, Promega). Four hours after transfection, cells were harvested, incubated for 25 minutes at 37 °C with furimazine and distributed into a white 96-well plates (1 × 10^5 cells per well). β-Arrestin2 recruitment was then detected for 20 minutes upon treatment with 1 μM VUF16840 (or increasing concentrations ligand for experiments with CC chemokine receptor [CCR3]) using the Mithras LB940 luminometer (Berthold Technologies). To evaluate the antagonist properties of VUF16840, full agonists of each receptor were added after the 20-minute incubation with VUF16840. Signal from wells treated with full agonist only was defined as 100% activity and signals from wells treated with no agonist were used to set 0% activity.
Supplemental Figure 5 – Modulation of CCR3 receptor by VUF16840. Recruitment of β-arrestin2 towards CCR3 chemokine receptor was measured using a NLuc complementation assay in HEK293T cells. The concentration-dependent activation of the CCR3 was determined for VUF16840 and the endogenous agonist CCL13. All values depict the mean ± SD of ≥ 3 experiments.

ACKR3 [4] = molecular target: T1, ACKR3 (Homo sapiens, UniProt P25106); test: BRET β-arrestin2 recruitment to hACKR3 in HEK293T cells; type: cell-based; conditions: * VUF16840 as inverse agonist; mean ± SD (N)
T1 construct: expressed in transfected cells; host or cells: HEK293T
T1 sequence (P25106 whole entry): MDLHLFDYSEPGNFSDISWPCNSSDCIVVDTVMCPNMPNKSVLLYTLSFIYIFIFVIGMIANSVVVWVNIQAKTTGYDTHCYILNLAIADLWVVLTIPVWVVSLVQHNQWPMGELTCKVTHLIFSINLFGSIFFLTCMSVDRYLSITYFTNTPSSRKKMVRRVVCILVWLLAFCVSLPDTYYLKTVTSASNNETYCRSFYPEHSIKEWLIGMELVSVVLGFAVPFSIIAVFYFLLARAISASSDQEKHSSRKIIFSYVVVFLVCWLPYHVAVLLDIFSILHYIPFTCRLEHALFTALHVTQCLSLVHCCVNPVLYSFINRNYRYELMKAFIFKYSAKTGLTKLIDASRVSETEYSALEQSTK
Experimental: (§1) For bioluminescence resonance energy transfer (BRET) experiments, several BRET acceptor constructs were used that consist of the pcDEF3 vector with either GRK2 (NCBI: NM_174710.2), β-arrestin1 (NCBI: NM_174243.3), or β-arrestin2 (NCBI: XM_005220181.4) fused at the C-terminus with a SpeI/NotI linker to mVenus (NCBI: KP666136.1), as previously described.[34]
(§2) For 1·10^6 HEK293T cells, a transfection mix consisting of 2 μg plasmid DNA, 12 μg linear PEI in a total volume of 200 μL 150 mM NaCl was made and thoroughly vortexed. The transfection mix was incubated for 15 minutes and consequently added to a cell suspension with a final concentration of 3·10^5 cells/mL. For functional studies this cell suspension was immediately transferred to a poly-L-lysine-coated white 96-well plate, with 3·10^4 cells per well. […] For BRET-based membrane localization experiments, the 2 μg plasmid DNA consisted of ACKR3-NL (0.05 μg), mVenus-CAAX (0.25 μg), and pcDEF3 vector DNA without insert (1.7 μg).
(§3) Mean pIC50 values were determined by averaging fitted values from individual experiments. Graphs depict the pooled data of all experiments. Similarly, sigmoidal, ligand-induced concentration-dependent activation or inhibition of the proximity between ACKR3 and the protein of interest was analyzed using GraphPad Prism 8, by fitting a 3-parameter concentration-response model to the data, to determine pEC50/pIC50 values. Mean pEC50 values and pIC50 values were determined by averaging fitted values from individual experiments. Graphs depict the pooled data of all experiments, for which values are normalized, per experiment, to the fold difference compared with basal signal.

ACKR3 [5] = molecular target: T1, ACKR3; test: BRET β-arrestin1 recruitment to ACKR3 in HEK293T cells; type: cell-based; conditions: * VUF16840 as inverse agonist
Experimental: as §1, §2, §3
HEK293T cells were stimulated with increasing concentrations of VUF15485 or VUF16840 only (A–D), or increasing concentrations of VUF16840 in the presence of 100 nM VUF15485 (E–H). The resulting proximity between ACKR3 and β-arrestin1 (A, E), GRK2 (B, F), or Rab5a (C, G) was determined by bioluminescence resonance energy transfer. Furthermore, an interaction between clathrin A and β-arrestin2 was measured by NLuc complementation, as was determined by quantifying the relative light units (D, H). Depicted data is normalized as fold-basal and represents the mean ± SD of N experiments with triplicate measurements per experiment. N is specified in Supplemental Table 1.

[6] = molecular target: N-terminally NLuc-tagged hACKR3 (human) (UniProt P25106)
Chain of N-terminally NLuc-tagged hACKR3 (human) (P25106 whole entry, the tested form may be a part): as the sequence (P25106 whole entry) above

[7] = molecular target: hACKR3-SmBiT (HA-tagged ACKR3 C-terminally fused to SmBiT) (human) (UniProt P25106)
Chain of hACKR3-SmBiT (HA-tagged ACKR3 C-terminally fused to SmBiT) (human) (P25106 whole entry, the tested form may be a part): as the sequence (P25106 whole entry) above

Chain of Human recombinant CXCL12 (P48061 22-93): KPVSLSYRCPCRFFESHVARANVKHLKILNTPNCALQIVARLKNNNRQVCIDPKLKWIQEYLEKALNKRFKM
Chain of CCL13 (Q99616 17-98): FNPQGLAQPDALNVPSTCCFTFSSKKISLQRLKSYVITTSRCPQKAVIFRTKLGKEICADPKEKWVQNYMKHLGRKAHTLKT

In the case of `O=C(N[C@H]1CCN(CC2CC2)C[C@@H]1C(=O)NC1(c2ncccn2)CC1)c1cc(-c2ccc(F)cc2F)on1` [ACT1004-1239], the “plasma and brain CXCL12 levels” value (CXCL12 levels [1]) is listed as “increase” and the “plasma CXCL12 levels” value (CXCL12 levels [2]) is listed as “increase”.

“CCL13 (from UniProt Q99616 17-98) (ligand)” showed a β-arrestin2 recruitment to CCR3 (NanoBiT, HEK293T), EC50 of CCL13 [3] of 63 nM.

In the case of “CCL13: endogenous ligand (agonist) of CCR3”, the “pEC50, activation of CCR3 (β-arrestin2 recruitment)” value (CCR3) is reported as 7.2 ± 0.1 and the EC50 (CCR3; read-out: EC50, activation of CCR3 (β-arrestin2 recruitment)) is reported as 63 nM.

For “CXCL11: human recombinant chemokine, endogenous agonist of ACKR3”, the “β-arrestin2 BRET pEC50” value (ACKR3 [4]) was 8.2 ± 0.1 (3) and the “β-arrestin1 BRET pEC50” value (ACKR3 [5]) was 8.1 ± 0.1 (6).

For “Human recombinant CXCL12 (from UniProt P48061 22-93) (ligand)”, the bystander BRET between ACKR3-NLuc (C-terminal NLuc, not the construct of m2) and plasma membrane mVenus-CAAX in HEK293T cells (receptor internalization), pIC50 of CXCL12 [6] was 9.1 pIC50 and the β-arrestin2 recruitment to hACKR3 (NanoBiT, HEK293T, concentration-response after 30 minutes), EC50 of CXCL12 [7] was 1.6 nM.
